Consider one molecule from patent US20230383007A1 (BIOSION, published 2023).

In test [1] the target is T1, human TROP2-his protein (human, UniProt P09758 27-274).
T1 construct: also called biotin labeled human TROP2-his protein
T1 sequence: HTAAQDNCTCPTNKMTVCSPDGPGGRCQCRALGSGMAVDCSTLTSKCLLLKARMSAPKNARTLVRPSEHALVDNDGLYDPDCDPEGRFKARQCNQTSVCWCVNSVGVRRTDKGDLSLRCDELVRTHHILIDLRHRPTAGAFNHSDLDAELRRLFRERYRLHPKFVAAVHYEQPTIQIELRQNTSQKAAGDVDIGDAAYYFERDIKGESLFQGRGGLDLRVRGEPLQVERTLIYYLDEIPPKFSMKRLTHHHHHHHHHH
The test is described as follows: indirect ELISA, plate coated with 1 ug/ml TROP2-his; bacterial culture supernatant. The procedure:
(§1) ELISA plates were coated with 100 μl 1 μg/ml human TROP2-his protein (in house made with SEQ ID NO: 16), or 1 μg/ml cynomolgus TROP2-his protein (in house made with SEQ ID NO: 19) in carbonate/bicarbonate buffer (pH 9.6) overnight at 4° C., washed once with wash buffer (PBS+0.05% v/v Tween-20, PBST) and then blocked with 200 μl/well blocking buffer (5% w/v non-fatty milk in PBST) for 2 hours at 37° C. Plates were washed 4 times, and respectively incubated with 100 μl bacterial culture supernatant, and sacituzumab (used as the benchmark, also referred to as BM or BM1 hereinafter, in house made with heavy chain and light chain amino acid sequences set forth in SEQ ID NOs: 17 and 18) in 5% w/v non-fatty milk in PBST at 200 ng/ml, for 40 minutes at 37° C. The plates were washed 4 times, and incubated with THE™ HA Tag Antibody [HRP], mAb, Mouse Antibody (1:5000 dilution in PBST, GenScript, Cat #A01296, 100 μl/well, for plates with bacterial culture supernatans of the disclosure) or Peroxidase AffiniPure F(ab′)₂ Fragment Goat Anti-Human IgG, Fey fragment specific (Jackson Immunoresearch, Cat #109-036-098, for plates with the benchmark), for 40 minutes at 37° C. After a final wash, plates were incubated with 100 μl/well ELISA substrate TMB (Innoreagents, Cat #TMB-S-002) at room temperature. The reaction was stopped in 3-10 minutes with 50 μl/well 1M H₂SO₄, and the absorbance of each well was read on a microplate reader using dual wavelength mode with 450 nm for TMB and 630 nm as the reference wavelength. When the OD of a sample well was 2 times higher than the OD of the blank well, the sample can be determined as positive.

Test [2] concerns the target T2, cynomolgus TROP2-his protein (cynomolgus, UniProt P09758 27-272 (human entry), limits assumed).
T2 construct: also called Cyno TROP2-his; Cynomolgus monkey TROP2-his protein
T2 chain: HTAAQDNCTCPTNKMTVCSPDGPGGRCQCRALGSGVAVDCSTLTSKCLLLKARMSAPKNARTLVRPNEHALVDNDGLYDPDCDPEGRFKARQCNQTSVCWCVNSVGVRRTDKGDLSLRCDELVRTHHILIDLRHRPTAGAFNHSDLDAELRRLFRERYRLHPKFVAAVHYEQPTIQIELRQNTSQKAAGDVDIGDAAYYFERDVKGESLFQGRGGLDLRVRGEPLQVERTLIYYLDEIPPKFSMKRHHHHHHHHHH
The description is as above. The procedure:
as §1

Test [3] has as its target T1, human TROP2-his protein. The test is described as follows: indirect ELISA, plate coated with human TROP2-his; unit taken from the x axis (Con of mAb, ng/mL). The procedure: The single domain antibodies of the disclosure were tested in the indirect ELISA for their cross-reaction with cynomolgus TROP2 protein. Briefly, 96-well micro plates were coated with 100 μl 2 μg/ml human TROP2-his protein (prepared in-house with SEQ ID NO: 16) in carbonate/bicarbonate buffer (pH 9.6) overnight at 4° C. ELISA plates were washed once with wash buffer (PBS+0.05% v/v Tween-20, PBST) and then blocked with 200 μl/well blocking buffer (5% w/v non-fatty milk in PBST) for 2 hours at 37° C. Plates were washed 4 times and incubated with 100 μl/well serially diluted anti-TROP2 antibodies of the disclosure or controls (starting at 66.7 nM, 5-fold serial dilution in 2.5% w/v non-fatty milk in PBST) for 40 minutes at 37° C. ELISA plates were washed 4 times again and incubated with Peroxidase AffiniPure F(ab′)₂ Fragment Goat Anti-Human IgG, Fey fragment specific (Jackson Immuno Research, Cat #109-036-098, 1:5000 dilution in PBST buffer, 100 μl/well) for 40 minutes at 37° C. After a final wash, plates were incubated with 100 μl/well TMB (Innoreagents) at room temperature. The reaction was stopped 3-10 minutes later at room temperature with 50 μl/well 1M H₂SO₄, and the absorbance of each well was read on a microplate reader using dual wavelength mode with 450 nm for TMB and 630 nm as the reference wavelength. The OD (450-630) values were plotted against antibody concentration. Data was analyzed using Graphpad Prism software and EC₅₀ values were reported.

In test [4] the target is T1, human TROP2-his protein. The test is described as follows: SPR Biacore T200; antibody captured on anti-human IgG CM5 chip, TROP2-his as analyte in 2-fold dilutions from 160 nM; 1:1 Langmuir fit. An excerpt:
(§2) The purified anti-TROP2 mouse monoclonal antibodies (mAbs) were characterized for binding affinity and binding kinetics by Biacore T200 system (GE healthcare, Pittsburgh, PA, USA). Briefly, goat anti-human IgG (GE healthcare, Cat #BR100839, Human Antibody Capture Kit) was covalently linked to a CM5 chip (carboxy methyl dextran coated chip from GE healthcare #BR100530) via primary amines, using a standard amine coupling kit (GE healthcare, Pittsburgh, PA, USA) provided by Biacore. Un-reacted moieties on the chip (biosensor) surface were blocked with ethanolamine. The anti-TROP2 antibodies of the disclosure and the benchmark at the concentration of 2 μg/ml were respectively flowed onto the chip at a flow rate of 10 μL/min. Then, serially diluted human TROP2-his protein (prepared in-house with SEQ ID NO: 16), or cynomolgus TROP2-his protein (prepared in-house with SEQ ID NO: 19), 2-fold dilution in HBS-EP⁺ buffer (provided by Biacore) starting at 160 nM, were flowed onto the chip at a flow rate of 30 μL/min. The antigen-antibody association kinetics was followed for 2 minutes and the dissociation kinetics was followed for 10 minutes. The association and dissociation curves were fit to a 1:1 Langmuir binding model using BIAcore evaluation software.

Test [5] deals with T2, cynomolgus TROP2-his protein. The description is as above.
Excerpt: as §2

The target of test [6] is T1, human TROP2-his protein. The test can be described thus: competitive ELISA: antibody pre-mixed with biotin labeled human TROP2-his, added to plate coated with the benchmark (sacituzumab analog); unit taken from the x axis (ng/mL). The procedure: The anti-TROP2 antibodies were tested for their epitope binding in a competitive ELISA assay. Briefly, 100 μl of the benchmark at 1 μg/mL in PBS was coated on 96-well micro plates for 2 hours at 37° C. ELISA plates were washed once with wash buffer (PBS+0.05% v/v Tween-20, PBST) and then blocked with 200 μl blocking buffer (5% w/v non-fatty milk in PBST) for 2 hours at 37° C. While blocking, the anti-TROP2 antibodies of the disclosure or controls were diluted with biotin labeled human TROP2-his protein (SEQ ID NO: 16, 34 ng/mL in 2.5% w/v non-fatty milk in PBST), starting at 80 nM with a 5-fold serial dilution, and incubated at room temperature for 40 minutes. After plate washing 4 times, the antibody/TROP2-his protein mixtures were added to benchmark coated plates, 100 μl per well. After incubation at 37° C. for 40 minutes, plates were washed 4 times again using wash buffer. Then the plates were added and incubated with 100 μl Peroxidase Streptavidin (1:10000 dilution in PBST buffer, Jackson Immunoresearch, Cat #016-030-084) for 40 minutes at 37° C. Plates were washed again using wash buffer. […] The absorbance of each well was read on a microplate reader using dual wavelength mode with 450 nm for TMB and 630 nm as the reference wavelength, and the OD (450-630) values were plotted against antibody concentration. Data was analyzed using Graphpad Prism software and IC₅₀ values were reported.
(In general: In an ELISA, binding on a coated surface is turned into a signal by an enzyme label.)

B1: single domain antibody 01-5A (VHH)
VHH: QVQLVESGGGTVGAGGSLRLSCVVSGLPYERYCVAWFRQGPGKEREGVARILSDGTTSYSDSVKGRFTISKDNAKNTLYLQMNSLKSEDTATYYCAAEAFRPFTPSDGDCTTVLGIDYWGKGTLVTVSS
In the case of B1, the figures for the “Indirect ELISA OD (450-630)” value (in the test with human TROP2-his protein [1]; in test [2]) were 1.03 OD (450-630) and 0.56 OD (450-630), respectively. In addition, the response in the test with human TROP2-his protein [3] was half-maximal at 0.0177 µg/mL (EC50). The Kd (usually the equilibrium constant for the complex coming apart) in the test with human TROP2-his protein [4] turned out to be 97.5 pM; in test [5], 647 pM. The koff (commonly the rate constant with which the complex falls apart) with human TROP2-his protein [4] came out at 2.73e-05 s⁻¹; in test [5] it was 0.000172 s⁻¹. The on-rate (kon) (as a rule, the second-order rate constant of association) with human TROP2-his protein [4] turned out to be 280000 M⁻¹ s⁻¹; in test [5] it was 266000 M⁻¹ s⁻¹. In addition, the IC50 – broadly, the midpoint of a concentration-inhibition curve – with human TROP2-his protein [6] stood at 0.0417 µg/mL.
